Assay results as given in paper PMC5016126.

Biological target: FLAG-GLUT4 (GLUT4 tagged at the N and C termini with FLAG and His9, tags not cleaved) (UniProt P19357)
Test: SDS-PAGE and Western blot; anti-FLAG immunoblot of purified FLAG-GLUT4 before and after TEV protease cleavage (0, 3 and 24 h) in LMNG detergent micelles or in 70% egg PC, 15% POPA, 15% POPE liposomes

stoichiometry N: 2
Substance: FLAG-GLUT4 (GLUT4 tagged at the N and C termini with FLAG and His9, tags not cleaved) (from UniProt P19357 1-509) (natural protein)
